This passage reports stoichiometry N results from doi:10.1101/2020.08.11.243964.

The target in this assay is Human connexin 26 protein (hCx26) (human) (UniProt P29033). As to the kind of experiment: cryo-EM structure.

The stoichiometry N is a count of units in the complex or per binding partner. For the substance “Human connexin 26 protein (hCx26) (from UniProt P29033) (natural protein)”, the stoichiometry N turned out to be 12.
